Assay results as given in paper PMC6698748.

How the values were obtained:
[1] = biological target: MtsR (wild type, recombinant, untagged) (Streptococcus pyogenes (group A streptococcus), strain MGAS10870, serotype M3); assay: SEC
[2] = biological target: MtsR F187A (Streptococcus pyogenes (group A streptococcus), strain MGAS10870, serotype M3); assay: SEC

Substance | stoichiometry N [1] | stoichiometry N [2]
MtsR (wild type, recombinant, untagged) (natural protein) | 2 | 
MtsR F187A (natural protein) |  | 2
